Experimental data: patent US20230312739A1 (BIOTHEUS, published 2023)

T1: human CD73 on the cell surface (tumor cells endogenously expressing human CD73; CHOS-human CD73) (human, UniProt P21589 27-549)
T1 sequence: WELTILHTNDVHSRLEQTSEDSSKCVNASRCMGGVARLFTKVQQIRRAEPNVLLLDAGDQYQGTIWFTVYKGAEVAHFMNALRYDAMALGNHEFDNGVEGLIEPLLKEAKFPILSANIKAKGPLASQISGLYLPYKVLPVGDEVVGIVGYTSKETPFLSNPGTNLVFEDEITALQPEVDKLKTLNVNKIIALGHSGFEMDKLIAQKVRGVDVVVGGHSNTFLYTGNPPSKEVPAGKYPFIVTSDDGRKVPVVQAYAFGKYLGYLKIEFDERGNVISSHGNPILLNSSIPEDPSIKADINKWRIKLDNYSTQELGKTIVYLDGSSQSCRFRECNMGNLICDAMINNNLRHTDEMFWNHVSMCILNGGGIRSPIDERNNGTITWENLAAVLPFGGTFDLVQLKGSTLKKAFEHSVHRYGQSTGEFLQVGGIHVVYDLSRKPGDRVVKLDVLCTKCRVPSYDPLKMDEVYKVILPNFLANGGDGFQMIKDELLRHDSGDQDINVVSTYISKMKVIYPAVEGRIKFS

T2: recombinant human CD73 protein (Baiying Bio) (human, UniProt P21589 27-549)
T2 construct: Bought protein; also called soluble recombinant CD73; soluble human CD73 protein
T2 sequence: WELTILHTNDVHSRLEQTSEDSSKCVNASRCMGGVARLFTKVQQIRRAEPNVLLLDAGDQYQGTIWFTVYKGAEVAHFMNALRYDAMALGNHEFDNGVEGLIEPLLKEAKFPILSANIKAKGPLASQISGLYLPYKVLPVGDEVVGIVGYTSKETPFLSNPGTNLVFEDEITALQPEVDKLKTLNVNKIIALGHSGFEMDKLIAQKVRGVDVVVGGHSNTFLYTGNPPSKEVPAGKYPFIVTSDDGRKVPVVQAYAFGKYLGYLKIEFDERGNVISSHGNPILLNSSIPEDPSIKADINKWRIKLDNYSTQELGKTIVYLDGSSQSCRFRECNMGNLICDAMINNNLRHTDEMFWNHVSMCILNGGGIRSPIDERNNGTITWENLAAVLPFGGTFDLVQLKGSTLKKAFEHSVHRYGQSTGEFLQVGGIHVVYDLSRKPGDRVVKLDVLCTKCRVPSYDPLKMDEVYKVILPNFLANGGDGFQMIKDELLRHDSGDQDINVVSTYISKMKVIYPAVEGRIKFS

B1: humanized antibody 7002-01 (antibody, human IgG1, kappa, V domains shown)
VH: QVQLQESGPGLVKPSQTLSLTCTVSGYSITSGYDWHWIRQHPGKGLEWMGYISYSGYTDYNPSLKSRITISHDTSKNQFSLKLSSVTAADTAVYYCTRGDHSYAMDYWGQGTLVTVSS
VL: AIQMTQSHSSLSASVGDRVTITCKASQAVGTAVAWYQQKPGKSPKLLIYWASSRHTGVPSRFSGSRSGTDFTLTISSLQPEDFATYFCQQYSSYPLTFGGGTKVEIKR

What was measured:
[1] = biological target: CD73 on cynomolgus macaques CD3+CD8+ T cells (cynomolgus macaques); assay: flow cytometry on cynomolgus macaque PBMC, CD3+CD8+ T cells, donor 1132F
[2] = biological target: CD73 on cynomolgus macaques CD3+CD8+ T cells (cynomolgus macaques); assay: flow cytometry on cynomolgus macaque PBMC, CD3+CD8+ T cells, donor 1300M
[3] = biological target: T1, human CD73 on the cell surface (tumor …); assay: cell-based or functional assay
[4] = biological target: T1, human CD73 on the cell surface (tumor …); assay: flow cytometry, MFI, A375 cells expressing human CD73
Method: (§1) 500,000 CD73-expressing cells (see Example 2) were placed in 100 μL of FACS buffer (PBS+2% FBS)/well for later use in a round-bottom low adsorption 96-well plate. The antibody sample was subjected to serial 3-fold dilutions at 12 points by diluting ½ of the total volume (100 μL) in 200 μL of FACS buffer. 100 μL of the diluted antibody was added to each well of the cell plate, 100 μL of FACS buffer was added to the corresponding negative control well, and incubation was performed at 4° C. for 1 hour. […] After staining, the supernatant was removed by centrifugation, washing was performed twice with FACS buffer, and 100 μL of FACS buffer was added to each well to resuspend the cells, and then reading was performed on flow cytometry. The cells in the plate were measured using a flow cytometer (BD, model ACCURI C6 PLUS). During the measurement, the cells were first gated according to FCS and SSC, and then analyzed by the green fluorescence channel (FITC) corresponding to the secondary antibody and SSC. GraphPad was used for data analysis, wherein the abscissa indicated the logarithm of antibody concentration, the ordinate indicated mean fluorescence intensity, and the EC50 value of the anti-CD73 antibody was obtained by curve fitting.

[5] = biological target: T1, human CD73 on the cell surface (tumor …); assay: flow cytometry, MFI, MDA-MB-231 cells expressing human CD73
Method: as §1

[6] = biological target: T2, recombinant human CD73 protein (Baiying …); assay: SPR, Biacore T200 at 25 C, antibody captured on Protein A chip, CD73 protein as analyte, 1:1 model
Method: The antibody was diluted with running buffer 1*HBS-EP+ to 1 μg/ml, and was captured onto the chip surface (Protein A chip, GE, Cat #29127556) at a flow rate of 10 μl/min for 30 s. Then, a series of concentrations of CD73 protein (Baiying Bio, recombinant human CD73 protein) were injected into antibody channel at a flow rate of 30 μl/min, for association of 180 s, followed by dissociation for 900 s. 10 mM pH 1.5 Gly-HCl was used for regeneration. The sensorgram data was fitted using a 1:1 dynamic binding model.

[7] = biological target: T2, recombinant human CD73 protein (Baiying …); assay: ELISA, 1 ug/ml recombinant human CD73 coated, HRP-coupled anti-IgG Fc secondary antibody, OD450
Method: 1 μg/ml recombinant human CD73 protein (Baiying Bio, recombinant human CD73 protein) was coated on an ELISA plate in PBS for overnight at 4° C. The plate was washed 3 times with washing buffer (PBS, 0.05% Tween-20), and non-specific sites were blocked by adding 200 μl/well PBS+2% BSA. 100 μL of the anti-CD73 antibody in a dose range of gradient dilution was added to the ELISA plate coated with the antigen, and incubated at 37° C. for 1 h. The plate was washed 3 times in washing buffer, and HRP-coupled goat anti-human or goat anti-mouse IgG Fc fragment secondary antibody was added for 1 h at room temperature to detect the captured anti-CD73 antibody. […] The enzymatic reaction was stopped by adding 1M sulfuric acid solution, and the light absorption was measured at 450 nm. The graph was plotted with the absorbance value on the ordinate and the log value of antibody concentration on the abscissa, and the EC50 was calculated using GraphPad Prism software.

Molecule	MFI FC (fold change of mean fluorescence intensity) [1]	MFI FC (fold change of mean fluorescence intensity) [2]	IC50 of antibody inhibiting enzymatic activity of CD73 on surface of A375 cells (AMP/ATP CellTiter-Glo) [3]	IC50 of antibody inhibiting enzymatic activity of CD73 on surface of MDA-MB-231 cells (AMP/ATP CellTiter-Glo) [3]	EC50 [4]	EC50 [5]	Kd [6]	koff [6]	kon [6]	EC50 (read off the curve) [7]
Isotype control (IgG1-TM) (antibody)	1.2 fold	1 fold								
B1			0.26 µg/mL	1 µg/mL	0.6 µg/mL	0.99 µg/mL	0.21 nM	6.24e-05 s⁻¹	297000 M⁻¹ s⁻¹	~0.008 µg/mL
